Assay results taken from publication PMC10239968, “[^18F]AlF-NOTA-ADH-1: A new PET molecular radiotracer for imaging of N-cadherin-positive tumors” (Frontiers in Oncology, 2023).

Tests used:
[1] = In vitro stability in PBS; type: physicochemical; conditions: 3.7 MBq in 0.5 mL PBS, 37 °C (results; method: room temperature), radio-TLC or radio-HPLC
Protocol: The stability of [^18F]AlF-NOTA-ADH-1 was tested in PBS and bovine serum. In brief, 3.7 MBq of[^18F]AlF-NOTA-ADH-1 was pipetted into 0.5 mL of PBS and incubated in PBS at room temperature or bovine serum at 37°C. For the study, an aliquot of the solution was directly taken at 1, 6, and 8 h after incubation, and the radiochemical purity was determined by radio-TLC or radio-HPLC under identical conditions.

[2] = type: physicochemical
Protocol: The partition coefficient of [^18F]AlF-NOTA-ADH-1 was measured by assessing the distribution of radioactivity in 1-octanol and phosphate buffer in a 2 mL centrifuge tube. 20µL of [^18F]AlF-NOTA-ADH-1 solution was added to a tube containing 0.5 mL each of 1-octanol and PBS. The mixture was vortexed and centrifuged (5,000 r/min) for 5 min. A total of 2 samples (50 μL) were collected from each layer and were assayed in a γ counter. Partition coefficients (log Po/w) are shown as the log counts in 1-octanol vs. PBS layers (n=3).

[3] = tested on: pancreatic PDX tumor xenografts; experiment: Micro-PET imaging, PDX tumor model; type: in vivo, nude mice; conditions: 60 min p.i.
Protocol: [^18F]AlF-NOTA-ADH-1 was evaluated by micro-PET imaging on nude mice bearing a PDX tumor, SW-480 and BxPC3 tumor xenografts. Each tumor-bearing nude mouse was injected with 3.7MBq [^18F]AlF-NOTA-ADH-1 via the tail vein. After being anesthetized with isoflurane, tumor-bearing nude mice were imaged using a micro-PET/CT scanner at 60 minutes post-injection under continuous isoflurane inhalation using a nasal mask with a connecting tube. Micro-PET/CT scanning was performed after low-dose 3D acquisition CT scanning at 10 minutes per bed. A blocking study was conducted, in which a saturating dose of unlabeled ADH-1 (20 mg/kg of mouse body weight) was intravenously administered 60 min before the intravenous injection of [^18F]AlF-NOTA-ADH-1.
The three-dimensional volume of interest (VOI) was used to assess the standard uptake value (SUV) of selected organs. The Seimens Inveon analysis software configured with micro-PET/CT was used to delineate the region of interest along the edge of the tumor and each normal tissue on the PET image. Subsequently, the SUV of each region of interest was measured, and the tumor/non-tumor ratio (T/NT) between the tumor and normal tissue was measured.

[4] = in vivo; parameters: species or system BALB/c nu/nu mice; conditions: female, BALB/c nu/nu, mouse, in vivo, iv, 0.74 MBq (20 uCi) per mouse, total radioactivity
Protocol: (§1) All animal experiments were performed in accordance with and approved by the Institutional Animal Care and Use Committee guidelines of the First Affiliated Hospital of Zhejiang University School of Medicine. BALB/c nu/nu mice (female, 20 ± 3 g, 4- to 6-week-old; Department of Laboratory Animal Science, Zhejiang University) were used in this study. The SW480 and BxPC3 xenografts were generated, and 5×10^6 tumor cells were subcutaneously injected into the flanks of female athymic nude mice. The PDX-bearing mouse models were established as follows. Pancreatic cancer (diagnosed as pancreatic ductal adenocarcinoma) tissues were obtained from the surgery of a patient. Written informed consent was obtained from the patient, and the research protocol was approved by the Clinical Research Ethics Committee of the First Affiliated Hospital of Zhejiang University School of Medicine. The sample was sectioned into about 1mm^3 pieces, and the tumor tissues were subcutaneously implanted into BALB/c nu/nu mice flanks. Mice were allowed free access to sterile water and food and were kept under strict disease-free conditions with controlled temperature (~25°C), humidity (50-70%), and circadian rhythms (12-hour light/dark cycles). All necessary procedures were carried out to minimize discomfort and avoid the waste of animals. The length and width of the tumor were measured every other day. Biodistribution studies and positron emission tomography in mice were performed after the tumor volume reached 150 to 200 mm^3.
(§2) The BALB/c nude mice were randomized into different tumor models (SW480, BxPC3, and pancreatic PDX), including 5 mice per group. Each nude mouse was injected with 0.74MBq (20μCi) [^18F]AlF-NOTA-ADH-1 through the caudal vein. Blood was collected from the orbit, and the mice were dissected to collect the brain, heart, lung, liver, liver, spleen, stomach, intestine, muscle, bone and others at 30 min, […], 60min, 90min and 120min after injection. In the blocked group, the study was performed with a saturating dose of ADH-1 (20 mg/kg of mouse body weight) intravenously administered 60min before the intravenous injection of [^18F]AlF-NOTA-ADH-1 in the pancreatic PDX model and SW480 xenograft model. The mice in the tumor xenograft model were sacrificed 1h after [^18F]AlF-NOTA-ADH-1 injection. The nude mice were dissected, and tumor tissues and related tissues (blood, brain, heart, lung, liver, spleen, kidney, stomach, intestine, muscle and bone) were weighed, and their radioactivity was measured by γ-counter. The radioactivity results were recorded as % ID/g.

[5] = tested on: pancreatic PDX tumor xenografts; experiment: in vivo; parameters: species or system BALB/c nu/nu mice; conditions: PDX xenograft nude mice, n=5, mean±SD
Protocol: as §1, §2

[6] = blocking (ADH-1 20 mg/kg i.v. 60min before), 60min p.i.

Compound: CC(=O)N[C@H]1CSSC[C@@H](C(=O)NCCNC(=O)CN2CCN(CC(=O)O)CCN(CC(=O)O)CC2)NC(=O)[C@H](C(C)C)NC(=O)[C@H](C)NC(=O)[C@H](Cc2c[nH]cn2)NC1=O [[^18F]AlF-NOTA-ADH-1]
- Radiochemical purity after 8 h in PBS [1]: about 95.5%
- Partition coefficient (log Po/w) [2]: -2.45 ± 0.09
- Micro-PET tumor/muscle ratio ([3]; 3.7MBq i.v., SUV-based T/NT): 8.069±2.832
- Micro-PET T/Lung ([3]; printed in the sentence on blocking with unlabeled ADH-1 (group unclear)): 5.062 ± 0.805
- tissue uptake at 0.5 h ([4]; Blood uptake): 0.69 ± 0.22 %ID/g
- tissue uptake at 1 h ([4]; Blood uptake): 0.4 ± 0.18 %ID/g
- tissue uptake at 1.5 h ([4]; Blood uptake): 0.39 ± 0.11 %ID/g
- tissue uptake at 2 h ([4]; Blood uptake): 0.41 ± 0.07 %ID/g
- tissue uptake at 0.5 h ([4]; Bone uptake): 1.74 ± 0.81 %ID/g
- tissue uptake at 1 h ([4]; Bone uptake): 2.29 ± 0.96 %ID/g
- tissue uptake at 1.5 h ([4]; Bone uptake): 1.65 ± 1.3 %ID/g
- tissue uptake at 2 h ([4]; Bone uptake): 0.74 ± 0.35 %ID/g
- tissue uptake at 0.5 h ([4]; Brain uptake): 0.62 ± 0.14 %ID/g
- tissue uptake at 1 h ([4]; Brain uptake): 0.99 ± 0.47 %ID/g
- tissue uptake at 1.5 h ([4]; Brain uptake): 0.63 ± 0.18 %ID/g
- tissue uptake at 2 h ([4]; Brain uptake): 0.51 ± 0.27 %ID/g
- tissue uptake at 0.5 h ([4]; Heart uptake): 2.54 ± 0.97 %ID/g
- tissue uptake at 1 h ([4]; Heart uptake): 0.96 ± 0.17 %ID/g
- tissue uptake at 1.5 h ([4]; Heart uptake): 0.95 ± 0.25 %ID/g
- tissue uptake at 2 h ([4]; Heart uptake): 0.81 ± 0.28 %ID/g
- tissue uptake at 0.5 h ([4]; Intestines uptake): 3.82 ± 0.12 %ID/g
- tissue uptake at 1 h ([4]; Intestines uptake): 2.14 ± 0.04 %ID/g
- tissue uptake at 1.5 h ([4]; Intestines uptake): 3.93 ± 2.67 %ID/g
- tissue uptake at 2 h ([4]; Intestines uptake): 2.53 ± 2 %ID/g
- tissue uptake at 1 h ([4]; Muscle uptake): 1.56 ± 0.07 %ID/g
- tissue uptake at 1.5 h ([4]; Muscle uptake): 2.03 ± 0.05 %ID/g
- tissue uptake at 2 h ([4]; Muscle uptake): 1.18 ± 0.6 %ID/g
- tissue uptake at 0.5 h ([4]; Skin uptake): 0.11 ± 0.04 %ID/g
- tissue uptake at 1 h ([4]; Skin uptake): 0.95 ± 0.46 %ID/g
- tissue uptake at 1.5 h ([4]; Skin uptake): 1.51 ± 0.02 %ID/g
- tissue uptake at 2 h ([4]; Skin uptake): 1.56 ± 0.66 %ID/g
- tissue uptake at 0.5 h ([4]; Stomach uptake): 3.23 ± 1.69 %ID/g
- tissue uptake at 1 h ([4]; Stomach uptake): 3.4 ± 0.12 %ID/g
- tissue uptake at 1.5 h ([4]; Stomach uptake): 6.16 ± 1.58 %ID/g
- tissue uptake at 2 h ([4]; Stomach uptake): 1.6 ± 1.04 %ID/g
- T/Blood ratio [5, 6]: 9.39± 0.10
- T/Muscle ratio [5, 6]: 2.12±0.06
- Tumor uptake [5, 6]: 3.75±0.07 %ID/g
- T/Blood ratio ([5]; non-blocking, 30min p.i.): 10.72± 1.02
- T/Muscle ratio ([5]; non-blocking, 30min p.i.): 5.69±0.72
- Tumor uptake ([5]; non-blocking, 30min p.i.): 8.04±1.82 %ID/g
- T/Blood ratio ([5]; non-blocking, 60min p.i.): 19.21± 2.20
- T/Muscle ratio ([5]; non-blocking, 60min p.i.): 8.70±2.68
- Tumor uptake ([5]; non-blocking, 60min p.i.): 10.76±2.16 %ID/g
- T/Blood ratio ([5]; non-blocking, 90min p.i.): 13.54± 0.35
- T/Muscle ratio ([5]; non-blocking, 90min p.i.): 4.15±1.86
- Tumor uptake ([5]; non-blocking, 90min p.i.): 7.18±0.53 %ID/g
- T/Blood ratio ([5]; non-blocking, 120min p.i.): 10.27±1.36
- T/Muscle ratio ([5]; non-blocking, 120min p.i.): 3.97±1.56
- Tumor uptake ([5]; non-blocking, 120min p.i.): 4.93±1.65 %ID/g
